# From patent publication US20070128190A1 (GLENMARK PHARMACEUTICALS S A, published 2007)
# Read-outs that look alike come from different tables or passages of the source.
# B1: GST-hα2 I domain A114Q (other)
# chain: GSSPDFQLSASFSPATQPCPSLIDVVVVCDESNSIYPWDAVKNFLEKFVQGLDIGPTKTQVGLIQYANNPRVVFNLNTYKTKEEMIVATSQTSQYGGDLTNTFGAIQYARKYAYSQASGGRRSATKVMVVVTDGESHDGSMLKAVIDQCNHDNILRFGIAVLGYLNRNALDTKNLIKEIKAIASIPTERYFFNVSDEAALLEKAGTLGEQIFSIEGTVEFIVTD
# notes: same construct as m41; not shown: GST carrier with the pGEX-2TK vector linker at the N end
# B2: GST-hα2 I domain E195W (other)
# chain: GSSPDFQLSASFSPATQPCPSLIDVVVVCDESNSIYPWDAVKNFLEKFVQGLDIGPTKTQVGLIQYANNPRVVFNLNTYKTKEEMIVATSQTSQYGGDLTNTFGAIQYARKYAYSAASGGRRSATKVMVVVTDGESHDGSMLKAVIDQCNHDNILRFGIAVLGYLNRNALDTKNLIKEIKAIASIPTERYFFNVSDWAALLEKAGTLGEQIFSIEGTVEFIVTD
# notes: same construct as m41; reported to lock the I domain in the open conformation; not shown: GST carrier with the pGEX-2TK vector linker at the N end
# B3: GST-hα2 I domain R165D (other)
# chain: GSSPDFQLSASFSPATQPCPSLIDVVVVCDESNSIYPWDAVKNFLEKFVQGLDIGPTKTQVGLIQYANNPRVVFNLNTYKTKEEMIVATSQTSQYGGDLTNTFGAIQYARKYAYSAASGGRRSATKVMVVVTDGESHDGSMLKAVIDQCNHDNILRFGIAVLGYLNDNALDTKNLIKEIKAIASIPTERYFFNVSDEAALLEKAGTLGEQIFSIEGTVEFIVTD
# notes: as for B1
# B4: GST-hα2 I domain N73D (other)
# chain: GSSPDFQLSASFSPATQPCPSLIDVVVVCDESNSIYPWDAVKNFLEKFVQGLDIGPTKTQVGLIQYANNPRVVFDLNTYKTKEEMIVATSQTSQYGGDLTNTFGAIQYARKYAYSAASGGRRSATKVMVVVTDGESHDGSMLKAVIDQCNHDNILRFGIAVLGYLNRNALDTKNLIKEIKAIASIPTERYFFNVSDEAALLEKAGTLGEQIFSIEGTVEFIVTD
# notes: as for B1
# B5: GST-hα2 I domain Q89H (other)
# chain: GSSPDFQLSASFSPATQPCPSLIDVVVVCDESNSIYPWDAVKNFLEKFVQGLDIGPTKTQVGLIQYANNPRVVFNLNTYKTKEEMIVATSHTSQYGGDLTNTFGAIQYARKYAYSAASGGRRSATKVMVVVTDGESHDGSMLKAVIDQCNHDNILRFGIAVLGYLNRNALDTKNLIKEIKAIASIPTERYFFNVSDEAALLEKAGTLGEQIFSIEGTVEFIVTD
# notes: as for B1
# B6: humanized TMC-2206 variant hIgG1/κ VH12.0/VL10.0Q (antibody)
# heavy: not shown
# light: DFVMTQSPAFLSVTPGEKVTITCSAQSSVNYIHWYQQKPDQAPKKLIYDTSKLASGVPSRFSGSGSGTDYTFTISSLEAEDAATYYCQQWTTNPLTFGQGTKVEIKRTVAAPSVFIFPPSDEQLKSGTASVVCLLNNFYPREAKVQWKVDNALQSGNSQESVTEQDSKDSTYSLSSTLTLSKADYEKHKVYACEVTHQGLSSPVTKSFNRGEC
# notes: hVH12.0 γ1 heavy chain and hVL10.0Q light chain; also called VH 12.0 VL 10.0Q (IgG1)
# B7: humanized TMC-2206 variant hIgG4/κ VH14.0/VL10.0Q (antibody)
# heavy: not shown
# light: DFVMTQSPAFLSVTPGEKVTITCSAQSSVNYIHWYQQKPDQAPKKLIYDTSKLASGVPSRFSGSGSGTDYTFTISSLEAEDAATYYCQQWTTNPLTFGQGTKVEIKRTVAAPSVFIFPPSDEQLKSGTASVVCLLNNFYPREAKVQWKVDNALQSGNSQESVTEQDSKDSTYSLSSTLTLSKADYEKHKVYACEVTHQGLSSPVTKSFNRGEC
# notes: hVH14.0 γ4 heavy chain and hVL10.0Q light chain
# B8: humanized TMC-2206 variant hIgG1/κ VH14.0/VL10.0Q (antibody)
# heavy: not shown
# light: DFVMTQSPAFLSVTPGEKVTITCSAQSSVNYIHWYQQKPDQAPKKLIYDTSKLASGVPSRFSGSGSGTDYTFTISSLEAEDAATYYCQQWTTNPLTFGQGTKVEIKRTVAAPSVFIFPPSDEQLKSGTASVVCLLNNFYPREAKVQWKVDNALQSGNSQESVTEQDSKDSTYSLSSTLTLSKADYEKHKVYACEVTHQGLSSPVTKSFNRGEC
# notes: hVH14.0 γ1 heavy chain and hVL10.0Q light chain; also called VH 14.0 VL 10.0Q (IgG1)
# B9: GST-cynomolgus α2 I domain fusion protein of Example 18 (sequence identical to the human I domain) (other)
# chain: SPDFQLSASFSPATQPCPSLIDVVVVCDESNSIYPWDAVKNFLEKFVQGLDIGPTKTQVGLIQYANNPRVVFNLNTYKTKEEMIVATSQTSQYGGDLTNTFGAIQYARKYAYSAASGGRRSATKVMVVVTDGESHDGSMLKAVIDQCNHDNILRFGIAVLGYLNRNALDTKNLIKEIKAIASIPTERYFFNVSDEAALLEKAGTLGEQIFSIEGTV
# notes: also called GST-cynomolgous-α2 I domain fusion protein; not shown: glutathione S-transferase tag, vector not restated
# B10: humanized TMC-2206 variant hVH1.0/hVL1.0 (antibody, human IgG1, V domains shown)
# VH: QVQLQESGPGLVKPSETLSLTCTVSGFSLTNYGIHWVRQPPGKGLEWLGVIWARGFTNYNSALMSRLTISKDNSKNQVSLKLSSVTAADTAVYFCARANDGVYYAMDYWGQGTLVTVSS
# VL: QFVLTQSPAFLSVTPGEKVTITCSANSSVNYIHWYQQKPDQAPKKWIYDTSKLASGVPSRFSGSGSGTDYTFTISSLEAEDAATYYCQQWTTNPLTFGQGTKVEIK
# notes: human IgG1/κ constant regions; also called humanized prototype; first humanized prototype
# Key:
# [1] = molecular target: T1, TMC-2206; experiment: fusion protein competing Eu-TMC-2206 off α2β1-coated plate
# T1 construct: murine IgG1/κ secreted by hybridoma BHA2.1; labelled with Eu-N1-ITC where used as tracer; also called BHA2.1
# Description: Wells in a 96 well microtiter plate were coated with platelet α2β1-integrin (custom-coated with human platelet α2β1 by GTI Inc., Wis.) and then blocked with nonfat milk. […] After concentration in prewashed MicroSep concentrators (30-kDa cutoff; Pall Life Sciences at 9500 rpm (7000×g) in a JA-20 rotor (Beckman Instruments, Inc.) for 20 minutes at 4° C.), antibodies were adjusted to 4.0 mg/mL with PBS containing a final concentration of 100 mM NaHCO₃, pH 9.3. The mAb/bicarbonate mixture (0.250 mL) was gently mixed into a vial containing 0.2 mg N¹-(p-isothiocyanatobenzyl)-diethylenetriamine-N¹,N²,N³N³-tetraacetic acid chelated with Eu³⁺ (Eu-N1-ITC; Perkin Elmer Life Sciences) and reacted overnight at 4° C. without stirring. Each labeled antibody mixture was applied to a separate PD-10 column (GE Biosciences, Piscataway, N.J.) pre-equilibrated with Running Buffer (50 mM Tris, pH 7.4 and 138 mM NaCl). Fractions (0.5 mL) were collected and assayed for total protein (Bradford reagent; Bio-Rad Laboratories, Hercules, Calif.) using a SpectraMax 384 absorbance plate reader and for europium after 1:10.000 dilution in DELFIA Enhancement Solution (Perkin-Elmer) by time-resolved fluorescence (TRF) using a Victor2 multi-label plate reader (Perkin Elmer). The fractions that were positive for both protein and Eu label were pooled and applied to new PD-10 columns and samples collected and assayed for total protein and for europium content by TRF calibrated against a europium standard solution (Perkin-Elmer) to calculate the fluor: protein ratio.
# [2] = molecular target: T1, TMC-2206; experiment: ELISA, GST fusion protein on immobilized TMC-2206 (Kd apparent)
# Description: The fusion proteins were then expressed and purified as described above for the human GST-α2 I domain fusion protein. […] Therefore, these and the primate fusion proteins were further purified by size exclusion chromatography on a Sephadex 75 10/30 (GE-Amersham) column (primate) by FPLC on an Akta-Basic FPLC system (GE-Amersham) to yield a monomeric fraction. […] The Kᵢ assays were performed as described above in Example 2. […] Plates were sealed and coating occurred overnight at 4° C. The next morning, the plates were washed twice with TBS solution and then blocked using 200 μL of the blocking solution described above for 1 hour at room temperature with shaking. After blocking, the blocking solution was removed but the wells were not washed. Instead, a serial dilution of GST fusion protein was made, added to the wells and then incubated for 2 hours at room temperature with shaking. The wells were then aspirated and a TBS washing buffer applied for 5 minutes at room temperature. The washing step was repeated twice more before the secondary antibody was applied. The secondary antibody step consisted of Amersham's HRP-conjugated rabbit anti-GST antibody diluted 1:2000 in blocking buffer. One hundred μL of secondary antibody was added to each well and incubated at room temperature for 1.5 hours with shaking. The wells were again aspirated and washed three times with wash buffer before adding the substrate reaction mixture. One hundred μL of substrate reaction mixture (1:1 dilution of TMB kit) was then added to each well for 6 minutes. The reaction was stopped by adding 100 μL of 0.1M H₂SO₄. The reaction within the wells was then read and quantified by spectrophotometric absorption using the Molecular Dynamics plate reader and associated Softmax software, respectively. Kd values were then estimated from the EC₅₀ values using Prism software (Graphpad, Calif.).
# [3] = molecular target: T1, TMC-2206; experiment: fusion protein competing Eu-TMC-2206 off α2β1-coated plate; remark: listed apart in the source
# [4] = molecular target: T1, TMC-2206; experiment: as above; remark: listed apart in the source
# [5] = molecular target: T2, human α2 integrin with endogenous hamster β1 on CHO cells (human; hamster); experiment: cell-based or functional assay
# [6] = molecular target: T3, human platelet α2β1 integrin (immobilized on microtiter plates) (human, UniProt P17301 30-1181; P05556 21-798); experiment: competition with Eu-TMC-2206 on human platelet α2β1-coated plate
# T3 construct: plates custom-coated with human platelet α2β1 by GTI Inc; also called immobilized α2β1 integrin; α2β1-coated plates
# Description: (§1) Each labeled antibody mixture was applied to a separate PD-10 column (GE Biosciences, Piscataway, N.J.) pre-equilibrated with Running Buffer (50 mM Tris, pH 7.4 and 138 mM NaCl). Fractions (0.5 mL) were collected and assayed for total protein (Bradford reagent; Bio-Rad Laboratories, Hercules, Calif.) using a SpectraMax 384 absorbance plate reader and for europium after 1:10.000 dilution in DELFIA Enhancement Solution (Perkin-Elmer) by time-resolved fluorescence (TRF) using a Victor2 multi-label plate reader (Perkin Elmer). The fractions that were positive for both protein and Eu label were pooled and applied to new PD-10 columns and samples collected and assayed for total protein and for europium content by TRF calibrated against a europium standard solution (Perkin-Elmer) to calculate the fluor: protein ratio. […] After incubating the sealed plates for 1 hr at 37° C. to allow binding to reach equilibrium, 2 μL samples were transferred from each well into a fresh well containing DELFIA Enhancement Solution (100 μL/well; Perkin-Elmer) for the measurement of free (unbound) label. Enhancement Solution (100 μL/well) was added to the emptied wells for the measurement of bound label. The plate was shaken (Titer Plate Shaker speed setting of 5 for 5 minutes at room temperature) and time-resolved fluorescent (TRF) intensities were read using a Victor2 multi-label plate reader (Perkin-Elmer Wallac, Boston, Mas.).
# [7] = molecular target: T3, human platelet α2β1 integrin …; experiment: as above; remark: listed apart in the source
# Description: Exemplary IgG1 antibodies have a hVH 14.0 γ heavy chain (SEQ ID NO:181) or a hVH12.0 γ1 heavy chain (SEQ ID NO:182) and a hVL10.0Q light chain (SEQ ID NO:178). Exemplary IgG4 antibodies have a hVH14.0 γ4 heavy chain (SEQ ID NO:174) or a hVH12.0 γ4 heavy chain (SEQ ID NO:176) and a hVL 10.0Q light chain (SEQ ID NO:178). Purified antibodies were tested in the competition assay to compare potency by Kᵢ values as well as in the cell adhesion to collagen assay, where potency is measured as EC₅₀ values.
# [8] = molecular target: T4, Humanized TMC-2206 (hIgG4/κ VH12.0/VL10.0Q); experiment: fusion protein competing Eu-humanized TMC-2206 off α2β1-coated plates
# T4 construct: labelled with Eu or Alexa-488 in some assays
# Excerpt: The inhibition curves were fitted with the “one site competition” model using Prism software (GraphPad, Inc.) to obtain IC₅₀ values and to calculate the Kᵢ using the equation of Cheng and Prusoff (1973) and the respective values for KD from above.
# The cloning of the human, rhesus macaque, rat, and mouse α2 I domains were described in Example 12. Cynomolgus and additional rhesus monkey α2 I domains were cloned from cDNA derived from total RNA extracted from skin tissue (MediCorp, Inc., Montreal, QC).
# [9] = molecular target: T2, human α2 integrin with endogenous …; experiment: cell-based or functional assay; remark: listed apart in the source
# [10] = molecular target: T3, human platelet α2β1 integrin …; experiment: competition with Eu-TMC-2206 on human platelet α2β1-coated plate; remark: listed apart in the source
# [11] = molecular target: T3, human platelet α2β1 integrin …; experiment: as above; remark: listed apart in the source
# Description: as §1
Binder,fold decrease in Ki values [3] [fold],Ki [4] [nM],Ki [6] [nM],Ki [7] [nM],also measured
B1,,,,,Ki [1]: 0.64 nM; Kd [2]: 0.19 nM
B2,45,12.8,,,
B3,,1990,,,
B4,7.8,2.17,,,
B5,15.9,4.46,,,
B6,,,0.31,0.27,"EC50 (nM), cell adhesion to collagen assay [5]: 2.2 nM"
B7,,,,0.36,
B8,,,0.29,0.24,"EC50 (nM), cell adhesion to collagen assay [5]: 1.3 nM"
B9,,,,,Ki [8]: 0.47 nM
B10,,,0.27,,"EC50, inhibition of cell adhesion to collagen [9]: 1.5 nM; Ki [10]: 0.32 nM; Ki [11]: 0.33 nM"
